PMC3162478 (Nature, 2011)

Assays:
[1] = molecular target: T1, FimD usher, full-length (undigested), with C-terminal Strep-tag II (Escherichia coli, UniProt P30130 46-878); test: AUC
T1 sequence: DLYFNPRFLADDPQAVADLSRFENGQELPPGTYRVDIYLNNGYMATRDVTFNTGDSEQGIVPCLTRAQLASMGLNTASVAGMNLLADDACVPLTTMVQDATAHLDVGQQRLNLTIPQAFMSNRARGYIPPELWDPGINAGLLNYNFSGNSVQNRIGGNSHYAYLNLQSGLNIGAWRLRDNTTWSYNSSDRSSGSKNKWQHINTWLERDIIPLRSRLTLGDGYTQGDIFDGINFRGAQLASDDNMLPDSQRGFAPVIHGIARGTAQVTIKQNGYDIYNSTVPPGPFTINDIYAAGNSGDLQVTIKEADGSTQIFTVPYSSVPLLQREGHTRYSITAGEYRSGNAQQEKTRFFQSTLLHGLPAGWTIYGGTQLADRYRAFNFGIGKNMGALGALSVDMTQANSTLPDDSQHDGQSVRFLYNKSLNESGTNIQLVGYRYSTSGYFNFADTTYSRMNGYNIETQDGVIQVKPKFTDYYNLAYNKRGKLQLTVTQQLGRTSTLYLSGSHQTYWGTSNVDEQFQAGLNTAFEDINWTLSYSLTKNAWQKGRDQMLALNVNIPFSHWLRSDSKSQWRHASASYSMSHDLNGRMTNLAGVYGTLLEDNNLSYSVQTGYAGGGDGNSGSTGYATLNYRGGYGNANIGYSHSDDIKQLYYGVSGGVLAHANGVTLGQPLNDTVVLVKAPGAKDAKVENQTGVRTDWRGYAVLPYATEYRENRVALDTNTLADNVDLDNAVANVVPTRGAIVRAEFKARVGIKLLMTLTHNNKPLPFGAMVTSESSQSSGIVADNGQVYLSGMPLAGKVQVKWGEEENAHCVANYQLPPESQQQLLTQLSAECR

FimH adhesin = FimH adhesin (Escherichia coli, UniProt P08191 22-300); test: AUC
Sequence of FimH adhesin (P08191 22-300): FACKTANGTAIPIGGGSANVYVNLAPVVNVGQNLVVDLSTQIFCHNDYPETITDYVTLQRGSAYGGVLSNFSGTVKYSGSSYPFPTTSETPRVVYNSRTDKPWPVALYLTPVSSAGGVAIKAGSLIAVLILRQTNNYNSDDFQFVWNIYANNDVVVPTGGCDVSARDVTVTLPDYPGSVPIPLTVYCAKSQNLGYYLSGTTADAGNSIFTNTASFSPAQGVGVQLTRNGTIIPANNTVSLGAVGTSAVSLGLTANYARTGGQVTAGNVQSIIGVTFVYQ

- stoichiometry N [1]: 1
- stoichiometry N (FimH adhesin): 1
B1: FimC chaperone (His-tagged, from pETS1001 fimCHisH) (natural protein)
chain: GVALGATRVIYPAGQKQEQLAVTNNDENSTYLIQSWVENADGVKDGRFIVTPPLFAMKGKKENTLRILDATNNQLPQDRESLFWMNVKAIPSMDKSKLTENTLQLAIISRIKLYYRPAKLALPPDQAAEKLRFRRSANSLTLINPTPYYLTVTELNAGTRVLENALVPPMGESTVKLPSDAGSNITYRTINDYGALTPKMTGVME
